Laboratory results as given in patent US20260183429A1 (TRUSTEES OF COLUMBIA UNIVERSITY IN THE CITY OF NEW YORK, published 2026).

Target: T1, endogenous MFN2 in WT mouse embryonic fibroblasts (MEFs) (mouse, UniProt Q80U63 1-757)
T1 construct: Detected in situ by proximity ligation assay; also called mitofusin-2
T1 sequence (looked up): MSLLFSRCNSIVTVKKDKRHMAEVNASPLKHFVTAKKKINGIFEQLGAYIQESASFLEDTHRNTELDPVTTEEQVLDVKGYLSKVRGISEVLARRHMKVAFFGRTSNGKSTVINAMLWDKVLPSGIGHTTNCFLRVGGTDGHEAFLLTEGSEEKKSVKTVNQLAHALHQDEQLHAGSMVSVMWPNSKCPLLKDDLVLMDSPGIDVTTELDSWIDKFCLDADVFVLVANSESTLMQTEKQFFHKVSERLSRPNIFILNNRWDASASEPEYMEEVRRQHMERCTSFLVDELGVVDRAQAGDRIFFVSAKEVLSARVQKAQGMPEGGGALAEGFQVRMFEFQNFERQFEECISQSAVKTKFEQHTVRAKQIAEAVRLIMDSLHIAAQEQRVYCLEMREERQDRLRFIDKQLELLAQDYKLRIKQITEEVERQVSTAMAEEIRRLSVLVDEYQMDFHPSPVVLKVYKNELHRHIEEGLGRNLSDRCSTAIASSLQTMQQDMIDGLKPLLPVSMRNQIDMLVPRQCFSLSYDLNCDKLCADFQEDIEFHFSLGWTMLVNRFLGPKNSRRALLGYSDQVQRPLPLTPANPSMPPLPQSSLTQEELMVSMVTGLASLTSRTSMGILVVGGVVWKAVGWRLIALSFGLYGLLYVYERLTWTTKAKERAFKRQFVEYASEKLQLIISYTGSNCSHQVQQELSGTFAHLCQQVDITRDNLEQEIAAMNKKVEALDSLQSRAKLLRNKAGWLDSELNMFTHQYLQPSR
Experiment: proximity ligation assay of MFN2 and ATAT1 in WT MEFs

- binding result: binds
B1: endogenous ATAT1 in WT mouse embryonic fibroblasts (MEFs) (enzyme, UniProt Q8K341 1-421, looked up)
chain: MEFPFDVDALFPERITVLDQHLRPPARRPGTTTPARVDLQQQIMTIVDELGKASAKAQHLPAPITSALRMQSNRHVIYILKDTSARPAGKGAIIGFLKVGYKKLFVLDDREAHNEVEPLCILDFYIHESVQRHGHGRELFQHMLQKERVEPHQLAIDRPSPKLLKFLNKHYNLETTVPQVNNFVIFEGFFAHQHRPPTSSLRATRHSRAAVADPIPAAPARKLPPKRAEGDIKPYSSSDREFLKVAVEPPWPLNRAPRRATPPAHPPPRSSSLGNSPDRGPLRPFVPEQELLRSLRLCPPHPTARLLLATDPGGSPAQRRRTRGTPWGLVAQSCHYSRHGGFNTSFLGTGNQERKQGEQEAEDRSASEDRVLLLDGSGEEPTQTGAPRAQAPPPQSWTVGGDIMNARVIRNLQERRSTRPW
notes: Detected in situ by proximity ligation assay
